Assay results from PMC6491520, “Antimicrobial Peptide LL-37 Facilitates Intracellular Uptake of RNA Aptamer Apt 21-2 Without Inducing an Inflammatory or Interferon Response”.

Key:
[1] = target: T1, LL-37 (cathelicidin antimicrobial peptide) (UniProt P49913 134-170); assay: EMSA; apparent KD from 50% loss of free aptamer; 100 nM RNA; 1 h on ice, 100 nM aptamer, 0-100 uM LL-37; binding buffer not stated; EMSA loading with 60 mM KCl, 10 mM Tris pH 7.6, 40% glycerol; 7% native PAGE in TBE; conditions: label: 5' 32P
T1 chain: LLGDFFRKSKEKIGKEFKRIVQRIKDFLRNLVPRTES

[2] = target: T1, LL-37 (cathelicidin antimicrobial …); assay: filter binding; apparent KD from 50% loss of free aptamer; 100 nM RNA; 1 h on ice, 100 nM aptamer, 0-100 uM LL-37; binding buffer not stated; EMSA loading with 60 mM KCl, 10 mM Tris pH 7.6, 40% glycerol; 7% native PAGE in TBE; conditions: label: 5' 32P

GGUCUAGCCGGAGGAGUCAGUAAUCGGUAGACC (XNA, 2'-fluoro C and U) [Apt 21-2]
Kd [1]: ~2000 nM
Kd [2]: ~2000 nM
